Assay results: patent US20110124842A1 (priority 2003, published 2011)
Like-named read-outs stand apart in the source and are kept apart here. Where no end group is shown, it is not given here.

Assays:
[1] = molecular target: peptide 104-2, NWFc(CITO)WLWKKKK-NH2; assay: surface plasmon resonance and ELISA
[2] = molecular target: peptide 33-1, NWFDITN-Aib-LWRR-NH2; assay: surface plasmon resonance and ELISA
[3] = molecular target: peptide 94-1, …-NH2; assay: surface plasmon resonance and ELISA
[4] = molecular target: recombinant gp41 (Example 2 ELISA) (HIV-1) (UniProt P04578); assay: direct ELISA, antigen coated on wells, 4E10 at 5 µg/ml
[5] = molecular target: peptide 104-2, NWFc(CITO)WLWKKKK-NH2; assay: surface plasmon resonance and ELISA (Table 7)
[6] = molecular target: peptide 94-1, …-NH2; assay: surface plasmon resonance and ELISA (Table 7)
[7] = molecular target: recombinant gp41 (Example 2 ELISA) (HIV-1) (UniProt P04578); assay: ELISA, Fab titrated on immobilized gp41
[8] = molecular target: IgG 4E10; assay: Competitive ELISA (IC50): peptide competes with biotinylated 4E10-epitope peptide for IgG 4E10; format: binding, human
Description: IC50, were determined by competitive ELISA using a constant concentration of biotinylated peptide and IgG with a variable concentration of gp41 peptides. Microwells were coated overnight at 4° C. with 50 μl PBS containing neutravidin (Pierce; 4 μg/ml). […] A mixture of a biotinylated 4E10-epitope peptide, […](biotin)-NH2 (SEQ ID NO: 88) (20 nM), IgG 4E10 (0.2 nM), and the competing peptide analog (3-fold dilution series starting at 10 μM) in 0.4% non-fat dry milk, 0.02% Tween and PBS was incubated in a separate 96-well plate at 37° C. for 2 hours. After washing the blocked plate, the mixture of 4E10, biotinylated peptide and competing peptide was added to the wells. After 20 minutes at room temperature, the Wells were washed five times, and a 1:500 dilution of goat anti-human IgG F(ab′)2 HRP conjugate (Pierce) was added. Following incubation at RT for 40 minutes, the wells were washed five times, and developed by adding 50 μl of TMB solution (Pierce) according to the manufacturer's instructions. After ˜20 minutes, wells containing TMB solution were stopped by adding 50 μl of H2SO4 (2M) and the O.D. at 450 nm was read on a microplate reader (Molecular Devices). The concentration of competitor peptide corresponding to a half-maximal signal (IC50) was determined by interpolation of the resulting binding curve. Each peptide competitor was tested in duplicate in at least two separate experiments.
IC50s were determined by competitive ELISA using a constant concentration of biotinylated peptide and IgG with a variable concentration of gp41 peptides. Microwells were coated overnight at 4° C. with 50 μl PBS containing neutravidin (Pierce; 4 μg/ml). […] Meanwhile, a mixture of a biotinylated 4E10-peptide epitope, […](biotin)-NH2 (SEQ ID NO: 88), (20 nM), IgG 4E10 (0.2 nM), and the competing peptide analogue (3-fold dilution series starting at 10 μM) in 0.4% NFDM, 0.02% Tween and PBS was incubated in a separate 96-well plate at 37° C. for 2 h. After washing the blocked plate, the mixture of 4E10, biotinylated peptide and competing peptide was added to the wells. After 20 min at room temperature, the wells were washed five times, and a 1:500 dilution of goat anti-human IgG F(ab′)2 HRP conjugate (Pierce) was added. Following incubation at RT for 40 min, the wells were washed five times, and developed by adding 50 μl of H2SO4 (2 M), and the O.D. at 450 nm was read on a microplate reader (Molecular Devices). The concentration of competitor peptide corresponding to a half-maximal signal (IC50) was determined by interpolation of the resulting binding curve. Each peptide competitor was tested in duplicate in at least two separate experiments.

[9] = Circular dichroism spectroscopy of free peptides in solution (helicity); format: physicochemical; details: FIG. 48
Description: To determine whether the imposed constraints increased the helicity of the peptides, each one was analyzed in solution using circular dichroism (CD) spectroscopy (FIG. 48). An Aviv spectropolarimeter Model 203-02 was used, with cells of 0.1 cm in length, a wavelength step of 0.5 nm and a bandwidth of 1.0 nm. One to three scans were reported. The exact peptide concentrations were determined by UV measurements at 280 nm on a Gison UV detector, model 116.

[10] = molecular target: recombinant IgG1(kappa) 4E10; assay: competitive ELISA; converted by the filing on the assumption of 25 kDa and a monomer
[11] = molecular target: recombinant IgG1(kappa) 4E10; assay: competitive ELISA: gp41 against biotinylated …(biotin)-NH2 for IgG 4E10
[12] = molecular target: recombinant IgG1(kappa) 4E10; assay: competitive ELISA: peptide against biotinylated …(biotin)-NH2 (20 nM) for IgG 4E10 (0.2 nM)
[13] = molecular target: Fab 4E10; assay: SPR (Biacore 2000), Fab 4E10 on CM5 chip, peptide in flow
[14] = molecular target: recombinant IgG1(kappa) 4E10; assay: competitive ELISA, reference peptide of the alanine scan
[15] = molecular target: recombinant IgG1(kappa) 4E10; assay: competitive ELISA for IgG 4E10
[16] = molecular target: Fab 4E10; assay: SPR (Biacore 2000), Fab 4E10 on CM5 chip, peptide in flow; remark: listed apart in the source
[17] = molecular target: recombinant IgG1(kappa) 4E10; assay: cell-based or functional assay
[18] = molecular target: recombinant IgG1(kappa) 4E10; assay: competitive ELISA: peptide against biotinylated …(biotin)-NH2 for IgG 4E10

Chain of recombinant IgG1(kappa) 4E10 (heavy, as listed by the source): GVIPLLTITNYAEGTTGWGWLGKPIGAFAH
Chain of Fab 4E10 (heavy, as listed by the source): as above

recombinant IgG1(kappa) 4E10 (antibody)
fold higher affinity than for the original peptide KGND [1]: 1000 fold
fold higher affinity than for the original peptide KGND [2]: 1000 fold
fold higher affinity than for the original peptide KGND [3]: 1000 fold
fold higher affinity than for the synthetic peptide (KGND) [4]: 4 fold
fold higher affinity than for peptide 33-1 [5]: 17 fold
fold higher affinity than for peptide 33-1 [6]: 17 fold

Fab 2F5
EC50 (read off the curve) [7]: 0.03 µg/mL

NWFDITNWLWYIKBKBKK-NH2 [Peptide 119]
IC50 (4E10 binding, competitive ELISA) [8]: the same IC50
IC50 ([8]; Table 6, constrained analogs, 4E10 binding, read-out: IC50): 10 nM
helicity in solution by CD [9]: more helical 94-1

recombinant gp41 (residues 541-682 of HxB2; Viral Therapeutics, Inc.) (from UniProt P04578 541-682)
IC50 [10]: 10 nM
IC50 [11]: 0.25 µg/mL

NWFDITNWLWKKKK-NH2 [peptide 84-1, …-NH2]
IC50 [12]: 40 nM
Kd [13]: 100 nM

SLWNWFDITNWLWYIKKKK-NH2 [peptide …-NH2]
IC50 [14]: 10 nM

NWFDITNWLWYIKKKK-NH2 [peptide 94-1, …-NH2]
fold improvement of IC50 compared to KGND [15]: > 1000 fold
fold improvement of IC50 over the starting peptide (84-1) [15]: 4 fold
Kd [16]: 20 nM
koff [16]: 0.0138 s⁻¹
kon [16]: 691000 M⁻¹ s⁻¹
inhibition of 4E10 neutralization of replication competent HIV-1 SF162 and JR-CSF (TZM-bl cells, luciferase) [17]: 30 µg/mL
Kd [13]: 18 nM
IC50 [18]: 10 nM
